In the nanobody polyreactivity screen of Harvey et al. (2022):

Experiment: yeast display, Sf9 membrane polyspecificity reagent, FACS + sequencing; frameworks hold sequencing errors
Outline: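 After 36–48 hours of galactose induction, yeast (Saccharomyces cerevisiae BJ5465) displaying a synthetic nanobody library were stained at 4 °C for 1 hour with 10% biotinylated, detergent-solubilized Sf9 membrane reagent. Streptavidin microbeads enriched the stained cells before FACS sorting into low and high (top ~1%) gates on anti-HA and streptavidin fluorescence. Each clone's polyreactivity label reflects its gate of origin.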

Sequence: QVQLVESGGGLVQAGGSLRLSCAASGRTFDYNAMGWYRQAPGKERELVARISNGDSTYADSVKGRFTISRDNAKNTVYLQMNSLKPEDTAVYYCAARQEPGWYPDVWWEYDYWGEGTQVTVSS
- polyreactivity (PSR sort gate): low polyreactivity

Sequence: QVQLVESGGGLVQAGGSLRLSCAASGSTFYANAMGWYRQAPGKERELVAAITRSGAGTYYADSVKGRFTISRDNAKNTVYLQMNSLKPEDTAVYYCNAGSSFWVSRIGYDYWGQGTQVTVSS
- polyreactivity (PSR sort gate): high polyreactivity

Sequence: QVQLVESRGGIVQAGGSLRLSCAASGRIFSRYAMGWSRQAPGKEREMVAAISWSGGSTFYADSVKGRFTISRDNAKNTVYLQMNSLKPEDTAVYDCAAYPRFYGGKDGEYGYWGQGTQVTVSS
- polyreactivity (PSR sort gate): high polyreactivity

Sequence: QVQLVESGGGLVQAGGSLRLSCAASGSIITGYAMGWYRQAPGKERELVAAITGNAGSTYYADSVKGRFTISRDNAKNTVYLQMNSLKPEDTAVYYCNARSWYVRGDYWGQGTQVTVSS
- polyreactivity (PSR sort gate): low polyreactivity

Sequence: QVQLVESGGGLVQAGGSLRLSCAASGRIFRRYAMGWNRQAPGKEMELVAAISRSGGSTYYADSVKGRFTISRDNAKNTVYLQMNSLKPEDTAVYYCNRRYITYNYDYWGQGTQVTVSS
- polyreactivity (PSR sort gate): high polyreactivity

Sequence: QVQLVESGGGLVQAGGSLRISCAASGRTFQFNVMGWYRQAPGKERELVASIRSGGSTNYADSVKGRFTISRDNAKNTVYLQMNSLKPEDTAVYYCAARVASPYYRYDYWGQGTQVTVSS
- polyreactivity (PSR sort gate): low polyreactivity

Sequence: QVQLVESGGGLVHAGGSLRLSCAACGRIFTYYAMGWYRQAPGKERELVAAITWSGGSTYYADSVKGRFTISRDNAKNTVYLQMNSLKPEDTAVYYCNAVVLHVTTDNSTFTTDDYWGQGTQVTVSS
- polyreactivity (PSR sort gate): low polyreactivity

Sequence: QVQLVESGGGLVQAGGSLRLSCAASGSTFIGYVMGWYRQAPGKERELVAAISWTGSNKYYADSVKGRFTISRDNAKNTVYLQMNSLKPEDTAVYYCNARSFAPYKNYDYWGQGTQVTVSS
- polyreactivity (PSR sort gate): low polyreactivity

Sequence: QVQLVESGGGLVQAGGSLRLSCAASGRIFYSYAMGWYRQAPGKELELVAAIDESDGSTYYADSVKGRFTISRDNAKNTVYLQMNSLKPEDTAVYYCAADSLLVLFDYWGQGTQVTVSS
- polyreactivity (PSR sort gate): low polyreactivity

Sequence: QVQLVESGVRLVQAGGSLRLSCAASGFTFRLYAMGWYIQAPGKERELVAATTSGGSTYYADSVKGRFTISRDNAKNTVYLQMNSLKPEDTAVYYCNKLYRTSVEYDYWGQGTQVTVSS
- polyreactivity (PSR sort gate): high polyreactivity

Sequence: QVQLVESGGGLVQAGGSLRISCAASGRTFECYAMGWSRQAPGKERELVAAISSGGSTYYADSVKGRFTISRDNAKNTVYLQMNSLKPEDTAVYYCNVLSQQRTARYDYWGQGTQVTVSS
- polyreactivity (PSR sort gate): low polyreactivity

Sequence: QVQLVESGGGLVQAGGSLRLSCAASGFIFRPYAMGWYRQAPGKERELVATISYRGGSTDYADSVKGRFTISRDNAKNTVYLQMNSLKPEDTAVYYCNAGYNRGYYYPVFAFFPYEYWGQGTQVTVSS
- polyreactivity (PSR sort gate): low polyreactivity

Sequence: QVQLVESGGGLVQAGGSLRLSCAASGLTFPENAMGWYRQAPGKEREMVASISDSDGITFYADSVKGSFTISRDNAKNTVYLQMNSLKPEDTAVYYCAADVAIAIPFSYDYWGQGSQVTVSS
- polyreactivity (PSR sort gate): low polyreactivity

Sequence: QVQLVESGGGLVQAGGSLRLSCAASGSIFVKNAMGWYRQAPGKERELVAVITIRTATTYYADSVKGRFTISRDNAKNTVYLQMNSLKPEVTAVYYCAAAKRQRGYLQREGNYWGQGTQVTVSS
- polyreactivity (PSR sort gate): low polyreactivity

Sequence: QVQLVESGGGLVQAGGSLRLSCAASGRTFSYNTMGCYRQAPGKERELVARITWGGGSTNYADSVKGRFTISRDNAKNTVYLQMNSLKPEDTAVYYCAREYSSVYWVRHLFYYWGQGTQVTVSS
- polyreactivity (PSR sort gate): low polyreactivity

Sequence: QVQLVESGGGLVQAGGSLRLSCAASGRTFYIYAMGWYRQAPGTERELVAAITWSGGTTYYADSVKGRFTISRDNAKNTVYLQMNSLKPEDTAVYYCAADRYGFYLESYYWGQGTQVTVSS
- polyreactivity (PSR sort gate): low polyreactivity

Sequence: QVQLVESGGGLVQAGGSLRLSCAASGSIFPIYAMGWYRPAPGKERELVAAINRSGGSTYYADSVKGRFTISRDNAKNTVYLQMNSLKPEDTAVYYCNADYGYHNQLFWGYYGWSSDHWGQGTQVTVSS
- polyreactivity (PSR sort gate): low polyreactivity

Sequence: KVQLVESGGGLVQAGGSLRISCAASGITFNPYAMGWYRQAAGKERELVAAISRRGGSTNYADSVKGRFTISRDNAKNTVYLQMNSLKPEDTAVYDCNRDYPIGYRHDPVYYWGQGTQVTVSS
- polyreactivity (PSR sort gate): high polyreactivity

Sequence: QVQLVESGGGLVQAGGSLRLSCAASGLNFGSNAMGWYRQAPGKERELVAAITWSGGSTYYADSVKGRFTISRDNAKNTVYLQMNSLKPEDTAVYYCAAKRWYRYYWGQGTQVTVSS
- polyreactivity (PSR sort gate): high polyreactivity

Sequence: QVQLVESGGGLVQAGGSLRLSCAASGGIFVSYAMGWSRQAPGKERELVARINTVDGTNYADSVKGRFTISRDNAKNTVYLQMNSLKPEDTAVYYCAVRSPVLASDYGYYFLRDYWGQGTQVTVSS
- polyreactivity (PSR sort gate): low polyreactivity

Sequence: QVQLVESGGGLVQAGGSLRLSWAASGITFYVYAMGWYRQAPGKERELVAAISRRGGSTSYADSVKGRFTISRDNAKNTVYLQMNSLKPEDTAVYYGAAGPFYGGIVRRYDYWGQGTQVTVSS
- polyreactivity (PSR sort gate): low polyreactivity

Sequence: QDQLVESGGGLVQAGGSLRLSCAASGLISSINAMGWYRQAPGKERELVAAISFSGGRTYYADSVKGRFTISRDNAKNTVYLQMNSLKPEDTAVYYFNAVSGGHRSRYGYWGQGTLVTVSS
- polyreactivity (PSR sort gate): high polyreactivity

Sequence: QVQLVESGGGLVQAGGSLRLSCAASGSIFIGYAMGWYRQAPGKERELVASIRNGGSTNYADSVKGRFTITRDNAKNTVYLQMNSLKPEDTAVYYCAGRYPVFLVSFGFDYWGQGTQVTVSS
- polyreactivity (PSR sort gate): low polyreactivity

Sequence: QFQLEESGGGLVQAGGSLRLSCAASGFTFFTYAMGWYRQAPGKERELVAAITTGGSTNYADSVKGRFTISRDNAKNTVYLQMNSLKPEDTAVYYCAVYGYVYGSAVQYDYWGQGTQVTVSS
- polyreactivity (PSR sort gate): low polyreactivity

Sequence: QVQLVESGGRLVQAGGSLRLSCAASGSIFRSNAMGWYRQAPGKERELVATISSSTGSTYYADSVKGRFTISRDNAKNTVYLQMNSLKPEDTAVYNCAAVQPVKSSSGYHFWYYWGQGTQVTVSS
- polyreactivity (PSR sort gate): high polyreactivity

Sequence: QVQLVESGGGLVQAGGSLRLSCAASGSTFFRYAMGWYRQAPGKERELVAAISKSGASTYYADSVKGRFTISRDNAKNTVYLQMNSLKPEDTAVYYCNADVKKSSAREWQYGYDYWGQGTQVTVSS
- polyreactivity (PSR sort gate): low polyreactivity

Sequence: QVQLVESGGCLVQAGGSLRLSCAASGFIFAKYAMGWYRQAPGKEREFVAAISFSGASTYYADSVKGRFTISRDNAKNTVYLQMNSLKPEDTAVYYCAAYWDAEGRRYTRLEYWGQGTQVTVSS
- polyreactivity (PSR sort gate): low polyreactivity

Sequence: QVHLVESGGGLVQAGGSLRLSCAASGSTFYYNAMGWYRQAPGKERELDAAITFTGGSTYADSVKGRFTISRDNAKNTVYLQMNSLKPEDTAVYYCAAESLISWRYDYWGQGTQVTVSS
- polyreactivity (PSR sort gate): low polyreactivity

Sequence: QVQLVESGGGLVQAGGSLRLSCAASGSIFSRNTMGWYRQAPGKERELVAGISSSGSRTYYADSVKGRFTISRDNAKYTVYLQMNSLKPEDTAVYYCAAEHQRSRGRRYYIGYDYWGQGTQVTVSS
- polyreactivity (PSR sort gate): low polyreactivity

Sequence: QVQLVESGGGLVQAGGSLSLRFAASGFIFYRYAMGWYRQAPWKERELVAAITRSVTSTYYADSVKGRFTISRDNAKNTVYLQMNSLKPEDTAVYYCILRSRYDYYYWGQGTQVTVSS
- polyreactivity (PSR sort gate): high polyreactivity

Sequence: QVQLVESGGGLVQAGGSLRLSCAASGRIFGYYAMGWYRQAPGKERELVAAISSSGGSTYYADSVKGRFTISRDNAKNTVYLQMNSLKPEDTAVYYCAREFSDGLSGKFDYWGQGTQVTVSS
- polyreactivity (PSR sort gate): low polyreactivity
